Measurements reported in patent US20230331827A1, “POTASSIUM CHANNEL INHIBITORS” (priority 2017, published 2023).

Key:
[1] = target: human Kv1.3 (human) (UniProt P22001); test: cell-based or functional assay
[2] = target: trypsin; test: phage TRF on trypsin

Sequence of human Kv1.3 (human) (P22001 whole entry): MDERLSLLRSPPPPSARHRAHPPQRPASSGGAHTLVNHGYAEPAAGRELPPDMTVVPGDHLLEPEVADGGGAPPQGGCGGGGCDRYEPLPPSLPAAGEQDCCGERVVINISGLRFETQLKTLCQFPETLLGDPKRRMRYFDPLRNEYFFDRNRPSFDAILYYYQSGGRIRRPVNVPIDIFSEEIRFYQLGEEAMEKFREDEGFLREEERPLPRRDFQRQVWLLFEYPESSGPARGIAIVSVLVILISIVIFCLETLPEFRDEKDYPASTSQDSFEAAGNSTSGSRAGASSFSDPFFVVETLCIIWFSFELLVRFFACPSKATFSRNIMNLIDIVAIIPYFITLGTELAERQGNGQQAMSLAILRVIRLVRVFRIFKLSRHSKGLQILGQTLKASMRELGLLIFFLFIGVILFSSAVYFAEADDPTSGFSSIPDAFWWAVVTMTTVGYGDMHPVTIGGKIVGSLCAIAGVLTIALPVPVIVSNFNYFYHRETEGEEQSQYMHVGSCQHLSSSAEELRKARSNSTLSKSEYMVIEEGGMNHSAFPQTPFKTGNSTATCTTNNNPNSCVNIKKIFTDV

Row | Binder | IC50, huKv1.3 current, QPatch patch clamp [1] [nM] | Tryspin binding signal (FU) [2] [FU]
1 | KB_A07_ShK (antibody, V domains shown) VH: EVQLVESGGGLVRPGGSLRLSCAASGFTFSSYAMSWVRQAPGKGLEWVSAISGSGGSTYYADSVKGRFTISRDNTKNSLYLQMTSLRADDTAFYYCVKDFGPGYGTGWFDYWGPGTLVTVSS VL: NWYQQKPGKAPKLLIYAAGVRSCIDTIPKSRCTAFQCKHSMKYRLSFCRKTCGTCSRSGVPSRFSGSGSGTDFTLTISSLQPEDFATYYCQQGASPPYTFGQGTKVEIKR | 40 | –
2 | KB_A01 (scFv on phage) (scFv, V domains shown) VH: EVQLVESGGGLVRPGGSLRLSCAASGFTFSSYAMSWVRQAPGKGLEWVSAISGSGGSTYYADSVKGRFTISRDNTKNSLYLQMTSLRADDTAFYYCVKDFGPGYGTGWFDYWGPGTLVTVSS VL: YLNWYQQKPGKAPKLLIYAAEVCPRILMRCKQDSDCLAGCVCGPNGFCGGTSGVPSRFSGSRSGTEFTLTISSLQPEDFATYYCQKVDDYPLTFGGGTKVEIKR | – | 20200
3 | KB_A07_KTX (antibody, V domains shown) VH: EVQLVESGGGLVRPGGSLRLSCAASGFTFSSYAMSWVRQAPGKGLEWVSAISGSGGSTYYADSVKGRFTISRDNTKNSLYLQMTSLRADDTAFYYCVKDFGPGYGTGWFDYWGPGTLVTVSS VL: DIQMTQSPSSLSASVGDRVTITCRASQSISSYLNWYQQKPGKAPKLLIYAAGVGVEINVKCSGSPQCLKPCKDAGMRFGKCMNRKCHCTPKSRSGVPSRFSGSGSGTDFTLTISSLQPEDFATYYCQQGASPPYTFGQGTKVEIKR | 900 | –
4 | KB_A02 (scFv on phage) (scFv, V domains shown) VH: EVQLVESGGGLVRPGGSLRLSCAASGFTFSSYAMSWVRQAPGKGLEWVSAISGSGGSTYYADSVKGRFTISRDNTKNSLYLQMTSLRADDTAFYYCVKDFGPGYGTGWFDYWGPGTLVTVSS VL: AVNWYQQLPGKAPKLLIYAAAKCPRILMRCKQDSDCLAGCVCGPNGFCGGASGVSDRFSGSIDSSSNSASLTISGLKPEDEGDYYCQSYDSSNRWVFGGGTKVTVLG | – | 183000
5 | KB_A06 (scFv on phage) (scFv, V domains shown) VH: EVQLVESGGGLVRPGGSLRLSCAASGFTFSSYAMSWVRQAPGKGLEWVSAISGSGGSTYYADSVKGRFTISRDNTKNSLYLQMTSLRADDTAFYYCVKDFGPGYGTGWFDYWGPGTLVTVSS VL: AVNWYQQLPGKAPKLLIYAAVRCPRILMRCKQDSDCLAGCVCGPNGFCGTPSGIPERFSGSIDRSTNSASLTISGLKTEDEADYYCQSYDSSNLNWVFGGGTKLTVLG | – | 24400
6 | KB_A03 (scFv on phage) (scFv, V domains shown) VH: EVQLVESGGGLVRPGGSLRLSCAASGFTFSSYAMSWVRQAPGKGLEWVSAISGSGGSTYYADSVKGRFTISRDNTKNSLYLQMTSLRADDTAFYYCVKDFGPGYGTGWFDYWGPGTLVTVSS VL: AVNWYQQLPGKAPKLLINAADRCPRILMRCKQDSDCLAGCVCGPNGFCGTNSGVPDRFSGSSSGNTASLTITGAQAEDEADYYCNSRDSSGNNWVFGGGTKVTVLG | – | 28700
7 | KB_A05 (scFv on phage) (scFv, V domains shown) VH: EVQLVESGGGLVRPGGSLRLSCAASGFTFSSYAMSWVRQAPGKGLEWVSAISGSGGSTYYADSVKGRFTISRDNTKNSLYLQMTSLRADDTAFYYCVKDFGPGYGTGWFDYWGPGTLVTVSS VL: AVNWYQQLPGKAPKLLIYAADKCPRILMRCKQDSDCLAGCVCGPNGFCGGGSGIPERFSGSKSGTSASLAISGLRSEDEADYYCATWDDNLNGVVFGGGTKLTVLG | – | 121000
8 | KB_A07_MoKa-1 (antibody, V domains shown) VH: EVQLVESGGGLVRPGGSLRLSCAASGFTFSSYAMSWVRQAPGKGLEWVSAISGSGGSTYYADSVKGRFTISRDNTKNSLYLQMTSLRADDTAFYYCVKDFGPGYGTGWFDYWGPGTLVTVSS VL: DIQMTQSPSSLSASVGDRVTITCRASQSISSYLNWYQQKPGKAPKLLIYAAGVINVKCSLPQQCIKPCKDAGMRFGKCMNKKCRCYSSRSGVPSRFSGSGSGTDFTLTISSLQPEDFATYYCQQGASPPYTFGQGTKVEIKRT | > 10000 | –
